Experimental data from patent US20160271142A1 (CELLERANT THERAPEUTICS, published 2016).

Tests used:
[1] = target: T1, C type Lectin Like molecule 1 (CLL-1), on human cell lines (human, UniProt Q5QGZ9 1-265); experiment: cell-based or functional assay
T1 sequence (looked up): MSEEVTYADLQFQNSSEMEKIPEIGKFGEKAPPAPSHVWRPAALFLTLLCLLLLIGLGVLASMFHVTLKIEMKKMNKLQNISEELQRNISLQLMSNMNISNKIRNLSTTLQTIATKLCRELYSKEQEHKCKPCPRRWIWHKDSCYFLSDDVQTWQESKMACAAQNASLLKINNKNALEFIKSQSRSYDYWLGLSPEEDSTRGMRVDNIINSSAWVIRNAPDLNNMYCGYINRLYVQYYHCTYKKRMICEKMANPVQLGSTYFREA

[2] = target: T1, C type Lectin Like molecule 1 (CLL-1), …; experiment: cell-based or functional assay; remark: listed apart in the source
[3] = target: T1, C type Lectin Like molecule 1 (CLL-1), …; experiment: cell-based or functional assay; remark: listed apart in the source
[4] = target: T1, C type Lectin Like molecule 1 (CLL-1), …; experiment: mean fluorescent intensity of ADC binding to HEL92.1.7-CLL1 cells, relative to control C0-CLT-D202 ADC
[5] = target: T1, C type Lectin Like molecule 1 (CLL-1), …; experiment: mean fluorescent intensity of ADC binding to AML5 cells (express CLL-1), relative to control C0-CLT-D202 ADC
[6] = target: T1, C type Lectin Like molecule 1 (CLL-1), …; experiment: mean fluorescent intensity of ADC binding to HL-60 cells (express CLL-1), relative to control C0-CLT-D202 ADC
[7] = target: T1, C type Lectin Like molecule 1 (CLL-1), …; experiment: mean fluorescent intensity of ADC binding to 293 cells, relative to control C0-CLT-D202 ADC; CLL-1 status of this line not stated
[8] = target: T1, C type Lectin Like molecule 1 (CLL-1), …; experiment: mean fluorescent intensity of ADC binding to AML2 cells, relative to control C0-CLT-D202 ADC; CLL-1 status of this line not stated
[9] = target: T1, C type Lectin Like molecule 1 (CLL-1), …; experiment: mean fluorescent intensity of ADC binding to PL21 cells, relative to control C0-CLT-D202 ADC; CLL-1 status of this line not stated
[10] = target: T1, C type Lectin Like molecule 1 (CLL-1), …; experiment: mean fluorescent intensity of ADC binding to U937 cells, relative to control C0-CLT-D202 ADC; CLL-1 status of this line not stated
[11] = target: T1, C type Lectin Like molecule 1 (CLL-1), …; experiment: mean fluorescent intensity of ADC binding to EOL-1 cells, relative to control C0-CLT-D202 ADC; CLL-1 status of this line not stated
[12] = target: T1, C type Lectin Like molecule 1 (CLL-1), …; experiment: mean fluorescent intensity of ADC binding to KG-1a cells, relative to control C0-CLT-D202 ADC; CLL-1 status of this line not stated
[13] = target: T1, C type Lectin Like molecule 1 (CLL-1), …; experiment: mean fluorescent intensity of ADC binding to SHI-1 cells, relative to control C0-CLT-D202 ADC; CLL-1 status of this line not stated
[14] = target: T1, C type Lectin Like molecule 1 (CLL-1), …; experiment: mean fluorescent intensity of ADC binding to HNT-34 cells, relative to control C0-CLT-D202 ADC; CLL-1 status of this line not stated
[15] = target: T1, C type Lectin Like molecule 1 (CLL-1), …; experiment: mean fluorescent intensity of ADC binding to parental HEL92.1.7 cells, relative to control C0-CLT-D202 ADC; CLL-1 status of this line not stated

- C6 relative MFI C6/C0 [4]: 26.1 ratio
- C6 relative MFI C6/C0 [5]: 15 ratio
- C6 relative MFI C6/C0 [6]: 20 ratio
- C6 relative MFI C6/C0 [7]: 1.2 ratio
- C6 relative MFI C6/C0 [8]: 13 ratio
- C6 relative MFI C6/C0 [9]: 14.7 ratio
- C6 relative MFI C6/C0 [10]: 14.7 ratio
- C6 relative MFI C6/C0 [11]: 20.5 ratio
- C6 relative MFI C6/C0 [12]: 1.3 ratio
- C6 relative MFI C6/C0 [13]: 1.4 ratio
- C6 relative MFI C6/C0 [14]: 5.8 ratio
- C6 relative MFI C6/C0 [15]: 1.3 ratio
B1: C6-CLT-D202 ADC (humanized anti-CLL1 antibody C6-S239C-CYSMAB, cys-substituted at position 239, conjugated to CLT-D202) (antibody, V domains shown)
VH: EVQLVQSGAEVKKPGASVKMSCKASGYTFTSYFIHWVRQAPGQGLEWIGFINPYNDGSKYAQKFQGRATLTSDKSTSTVYMELSSLRSEDTAVYYCTRDDGYYGYAMDYWGQGTLVTVSS
VL: DIQMTQSPSSLSASVGDRVTLTCRATQELSGYLSWLQQKPGKAIKRLIYAASTLDSGVPSRFSGNRAGTDYTLTISSLQPEDFATYYCLQYAIYPYTFGQGTKLEIK
modifications: CLT-D202 (maleimide linker-drug) on the engineered cysteine at position 239 (S239C) of the heavy chain constant region; drug to antibody ratio 1.7
- IC50, killing of proliferating AML-5 cells [1]: 0.03 µg/mL
- IC50, killing of quiescent AML-5 cells [1]: 0.02 µg/mL
- decrease in IC50 of cell killing, TF1-CLL1 against TF1 [1]: ~1000 fold
- target dependent cell killing, HL-60 cells, relative to control C0-CLT-D202 ADC [1]: > 500 fold
- IC50 ug/mL, cell killing, TF1-CLL1 cells [2]: 0.008 µg/mL
- IC50 ng/mL, cell killing, AML5 cells [3]: 13 ng/mL
- IC50 ng/mL, cell killing, HEL92.1.7-CLL1 cells [3]: 17 ng/mL
- IC50 ng/mL, cell killing, HL-60 cells [3]: 11 ng/mL
